Results: IntAct's records for PubMed 25374563

B1: Tyrosine-protein kinase YwqD (Bacillus subtilis), P96716 (parent)
chain: MALRKNRGSRMQRNVIAMTEPKSLNSEQYRTIRTNIEFASVDRQMKSVMITSACPGEGKSTTAANLAVVFAQQGKKVLLIDADLRKPTVHTAFFLENTVGLTSVLLKKSSMEQAVQASNEKHLDVLTSGPIPPNPAELLSSKWMKELAYEACAAYDMVIFDTPPILAVADAQILGNVADGSVLVISSGKTEKEQAAKAKEALATCKSKLLGAIMNGKKLSKHSEYGYYGTKDNFMQK
partner: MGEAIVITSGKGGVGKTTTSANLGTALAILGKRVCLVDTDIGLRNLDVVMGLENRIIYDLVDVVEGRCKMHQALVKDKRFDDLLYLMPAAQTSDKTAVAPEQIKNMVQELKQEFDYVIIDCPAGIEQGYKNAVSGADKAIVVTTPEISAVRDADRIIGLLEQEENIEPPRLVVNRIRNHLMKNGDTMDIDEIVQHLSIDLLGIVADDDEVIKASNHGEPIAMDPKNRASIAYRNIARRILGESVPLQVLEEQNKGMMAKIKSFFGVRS

Variants of: B1
Settings: with mind_bacsu minD

Row | Variant | effect of a mutation on the interaction
1 | MALRKNRGSRMQRNVIAMTEPKSLNSEQYRTIRTNIEFASVDRQMKSVMITSACPGEGMSTTAANLAVVFAQQGKKVLLIDADLRKPTVHTAFFLENTVGLTSVLLKKSSMEQAVQASNEKHLDVLTSGPIPPNPAELLSSKWMKELAYEACAAYDMVIFDTPPILAVADAQILGNVADGSVLVISSGKTEKEQAAKAKEALATCKSKLLGAIMNGKKLSKHSEYGYYGTKDNFMQK [K59M] | disrupting interaction strength
2 | MALRKNRGSRMQRNVIAMTEPKSLNSEQYRTIRTNIEFASVDRQMKSVMITSACPGEGKSTTAANLAVVFAQQGKKVLLIAADLRKPTVHTAFFLENTVGLTSVLLKKSSMEQAVQASNEKHLDVLTSGPIPPNPAELLSSKWMKELAYEACAAYDMVIFDTPPILAVADAQILGNVADGSVLVISSGKTEKEQAAKAKEALATCKSKLLGAIMNGKKLSKHSEYGYYGTKDNFMQK [D81A] | decreasing interaction strength
